From patent US20130195866

Target: T1, NFATc4 (nuclear factor of activated T cells), endogenous in mouse cortical neurons (UniProt Q8K120)
T1 sequence: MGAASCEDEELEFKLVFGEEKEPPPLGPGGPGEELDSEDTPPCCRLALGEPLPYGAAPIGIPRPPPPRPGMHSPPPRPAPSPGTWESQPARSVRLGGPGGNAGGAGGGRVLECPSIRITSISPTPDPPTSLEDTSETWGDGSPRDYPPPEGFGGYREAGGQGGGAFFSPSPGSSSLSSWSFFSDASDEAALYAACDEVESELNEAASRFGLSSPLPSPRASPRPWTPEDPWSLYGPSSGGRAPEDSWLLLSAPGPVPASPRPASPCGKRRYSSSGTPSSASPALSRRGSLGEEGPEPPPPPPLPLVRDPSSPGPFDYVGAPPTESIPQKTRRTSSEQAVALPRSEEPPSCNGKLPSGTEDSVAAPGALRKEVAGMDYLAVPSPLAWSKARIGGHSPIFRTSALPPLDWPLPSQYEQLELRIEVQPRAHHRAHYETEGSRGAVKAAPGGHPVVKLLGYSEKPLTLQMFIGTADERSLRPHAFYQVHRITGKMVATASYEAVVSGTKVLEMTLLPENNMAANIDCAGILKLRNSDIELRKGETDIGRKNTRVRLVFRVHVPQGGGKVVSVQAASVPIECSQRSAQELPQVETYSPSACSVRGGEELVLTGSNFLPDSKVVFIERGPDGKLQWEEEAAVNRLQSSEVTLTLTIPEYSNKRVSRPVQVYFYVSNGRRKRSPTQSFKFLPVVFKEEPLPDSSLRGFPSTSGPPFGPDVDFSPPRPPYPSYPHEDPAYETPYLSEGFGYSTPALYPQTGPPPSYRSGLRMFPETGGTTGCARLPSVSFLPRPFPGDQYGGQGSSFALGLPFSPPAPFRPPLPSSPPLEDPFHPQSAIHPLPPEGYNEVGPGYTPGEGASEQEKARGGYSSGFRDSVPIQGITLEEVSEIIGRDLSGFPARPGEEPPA

## HA-tagged constitutively active calcineurin, CaNCA (mouse CaN amino acid residues 1-399, 45 kDa form)
  NFATc4 nuclear distribution in neurons of injected mouse brain: CaNCA-expressing neurons showed high levels of NFATc4 nuclear distribution (data not shown)
